B1: Receptor-interacting serine/threonine-protein kinase 1 (Homo sapiens), Q13546 (parent)
chain: MQPDMSLNVIKMKSSDFLESAELDSGGFGKVSLCFHRTQGLMIMKTVYKGPNCIEHNEALLEEAKMMNRLRHSRVVKLLGVIIEEGKYSLVMEYMEKGNLMHVLKAEMSTPLSVKGRIILEIIEGMCYLHGKGVIHKDLKPENILVDNDFHIKIADLGLASFKMWSKLNNEEHNELREVDGTAKKNGGTLYYMAPEHLNDVNAKPTEKSDVYSFAVVLWAIFANKEPYENAICEQQLIMCIKSGNRPDVDDITEYCPREIISLMKLCWEANPEARPTFPGIEEKFRPFYLSQLEESVEEDVKSLKKEYSNENAVVKRMQSLQLDCVAVPSSRSNSATEQPGSLHSSQGLGMGPVEESWFAPSLEHPQEENEPSLQSKLQDEANYHLYGSRMDRQTKQQPRQNVAYNREEERRRRVSHDPFAQQRPYENFQNTEGKGTAYSSAASHGNAVHQPSGLTSQPQVLYQNNGLYSSHGFGTRPLDPGTAGPRVWYRPIPSHMPSLHNIPVPETNYLGNTPTMPFSSLPPTDESIKYTIYNSTGIQIGAYNYMEIGGTSSSLLDSTNTNFKEEPAAKYQAIFDNTTSLTDKHLDPIRENLGKHWKNCARKLGFTQSQIDEIDHDYERDGLKEKVYQMLQKWVMREGIKGATVGKLAQALHQCSRIDLLSSLIYVSQN
B2: Receptor-interacting serine/threonine-protein kinase 3 (Homo sapiens), Q9Y572 (parent)
chain: MSCVKLWPSGAPAPLVSIEELENQELVGKGGFGTVFRAQHRKWGYDVAVKIVNSKAISREVKAMASLDNEFVLRLEGVIEKVNWDQDPKPALVTKFMENGSLSGLLQSQCPRPWPLLCRLLKEVVLGMFYLHDQNPVLLHRDLKPSNVLLDPELHVKLADFGLSTFQGGSQSGTGSGEPGGTLGYLAPELFVNVNRKASTASDVYSFGILMWAVLAGREVELPTEPSLVYEAVCNRQNRPSLAELPQAGPETPGLEGLKELMQLCWSSEPKDRPSFQECLPKTDEVFQMVENNMNAAVSTVKDFLSQLRSSNRRFSIPESGQGGTEMDGFRRTIENQHSRNDVMVSEWLNKLNLEEPPSSVPKKCPSLTKRSRAQEEQVPQAWTAGTSSDSMAQPPQTPETSTFRNQMPSPTSTGTPSPGPRGNQGAERQGMNWSCRTPEPNPVTGRPLVNIYNCSGVQVGDNNYLTMQQTTALPTWGLAPSGKGRGLQHPPPVGSQEGPKDPEAWSRPQGWYNHSGK

Variants of: B1
Settings: with ripk3_human RIPK3, Q9Y572

Effect of a mutation on the interaction, decreasing interaction strength:
A543D
Q540D
G542D
Y544D
N545D
I539D
I541D

Variants of: B2
Settings: with ripk1_human RIPK1, Q13546

Effect of a mutation on the interaction, decreasing interaction strength:
S456D
D462K
V458D
Q459D
V460D
V458E;V460E
G457D
G461D

Variants of: B2
Settings: with ripk1_human RIPK1, Q13546
Remark: another data set of the same source

Effect of a mutation on the interaction, decreasing interaction strength:
V458P
Q459P
V460P
G461P
